This is an account of results in patent publication US20190119366A1 (ADC THERAPEUTICS, published 2019).

Assay [1] addresses T1, recombinant human KAAG1 (Kidney associated antigen 1) (human, UniProt Q9UBP8 1-84).
T1 construct: also called KAAG1 protein
T1 sequence: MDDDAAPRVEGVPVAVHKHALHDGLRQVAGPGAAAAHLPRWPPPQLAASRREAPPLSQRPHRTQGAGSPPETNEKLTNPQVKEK
Kind of assay: not described; list of antibodies generated.

Assay [2] has as its target T2, KAAG1 on the surface of cancer cells (human, UniProt Q9UBP8 1-84).
T2 construct: Endogenous KAAG1 of human cancer cell lines and of tumor tissue sections; also called KAAG1 antigen
T2 sequence: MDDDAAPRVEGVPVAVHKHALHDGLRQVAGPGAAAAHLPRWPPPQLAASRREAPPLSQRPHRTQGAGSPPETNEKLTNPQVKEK
As to the kind of experiment: flow cytometry, MDA-231 cells. (In general: In flow cytometry, cells or beads pass a laser one at a time.)

Assay [3] concerns the target T1, recombinant human KAAG1 (Kidney …). Kind of assay: SPR (BioRad ProteOn XPR36): antibody captured on an anti-human IgG Fc surface, KAAG1 injected as analyte, 1:1 Langmuir fit. As for the experimental part:
(§1) Immediately after the activation, a 13 μg/mL solution of anti-human IgG Fc fragment specific in 10 mM NaOAc pH 4.5 was injected in the analyte direction at a flow rate of 25 μL/min until approximately 8000 resonance units (RUs) were immobilized. Remaining active groups were quenched by a 300 s injection of 1M ethanolamine at 30 μL/min in the analyte direction, and this also ensures mock-activated interspots are created for blank referencing. The screening of the 3A4 variants for binding to KAAG1 occurred in two steps: an indirect capture of 3A4 variants from cell supernatant onto the anti-human IgG Fc fragment specific surface in the ligand direction(vertical) followed by a KAAG1 injection in the analyte direction. Firstly, one buffer injection for 30 s at 100 uL/min in the ligand direction was used to stabilize the baseline. […] Four to five 3A4 variants along with wild-type 3A4 were simultaneously injected in individual ligand channels for 240 s at flow 25 μL/min. […] The first ligand channel was left empty to use as a blank control if required. This 3A4 capture step was immediately followed by two buffer injections in the analyte direction to stabilize the baseline, and then the gel filtration purified KAAG1 was injected. For a typical screen, five KAAG1 concentrations (8, 2.66, 0.89, 0.29, and 0.098 nM) and buffer control were simultaneously injected in individual analyte channels at 50 μL/min for 120 s with a 600s dissociation phase, resulting in a set of binding sensorgrams with a buffer reference for each of the captured 3A4 variants. The anti-human IgG Fc fragment specific—3A4 complexes were regenerated by a 18 s pulse of 0.85% phosphoric acid for 18 s at 100 μL/min to prepare the anti-human IgG Fc fragment specific surface for the next injection cycle. Sensorgrams were aligned and double-referenced using the buffer blank injection and interspots, and the resulting sensorgrams were analyzed using ProteOn Manager software v3.0.

Assay [4] has the same target. Kind of assay: SPR (BioRad ProteOn XPR36); fold difference of KD relative to LcHc. As to the method:
as §1

The target is the same in assay [5]. As to the kind of experiment: SPR (ProteOn XPR36), antibody captured on anti-human IgG Fc, KAAG1 as analyte. As for the experimental part:
as §1

B1: 3C4 anti-KAAG1 antibody (antibody, V domains shown)
VH: EVQLQESGPDLVKPSQSLSLTCTVTGFSITSGYGWHWIRQFPGNKLEWMGYINYDGHNDYNPSLKSRISITQDTSKNQFFLQLNSVTTEDTATYYCASSYDGLFAYWGQGTLVTVSA
VL: DIVMSQSPSSMYASLGERVTITCKASQDIHNFLNWFQQKPGKSPKTLIFRANRLVDGVPSRFSGSGSGQDYSLTISSLEFEDLGIYSCLQYDEIPLTFGAGTKLELR
For the molecule B1, the binding result in assay [1] is on record as “binds”.

B2: 3A4-ADC1 (chimeric 3A4 conjugated to a cytotoxic drug via a cleavable peptide linker) (antibody, human IgG1, kappa, V domains shown)
VH: QIQLVQSGPEMVKPGASVKMSCKASGYTFTDDYMSWVKQSHGKSLEWIGDINPYNGDTNYNQKFKGKAILTVDKSSSTAYMQLNSLTSEDSAVYYCARDPGAMDYWGQGTSVTVSS
VL: DVVMTQTPLSLAVSLGDQASISCRSSQSLLHSNGNTYLEWYLQKPGQSPKLLIHTVSNRFSGVPDRFSGSGSGTDFTLKISRVEAEDLGVYYCFQGSHVPLTFGAGTRLELKR
modifications: cytotoxic drug conjugated via a highly stable peptide linker that is selectively cleaved by lysosomal enzymes; chain and residues of attachment not stated
In the case of B2, the binding result in assay [2] was “binds”.

B3: 3A4-ADC2 (chimeric 3A4 conjugated to an anti-mitotic drug via a non-cleavable linker) (antibody, human IgG1, kappa, V domains shown)
VH: QIQLVQSGPEMVKPGASVKMSCKASGYTFTDDYMSWVKQSHGKSLEWIGDINPYNGDTNYNQKFKGKAILTVDKSSSTAYMQLNSLTSEDSAVYYCARDPGAMDYWGQGTSVTVSS
VL: DVVMTQTPLSLAVSLGDQASISCRSSQSLLHSNGNTYLEWYLQKPGQSPKLLIHTVSNRFSGVPDRFSGSGSGTDFTLKISRVEAEDLGVYYCFQGSHVPLTFGAGTRLELKR
modifications: anti-mitotic drug conjugated via a non-cleavable linker; chain and residues of attachment not stated
Turning to B3, the binding result in assay [2] was “binds”.

B4: 3E10 anti-KAAG1 antibody (antibody, V domains shown)
VH: EVQLQQSGPELVKPGASVKISCKASGDTFTDYYMNWVKQSHGKSLEWIGDINPNYGGITYNQKFKGKATLTVDTSSSTAYMELRGLTSEDSAVYYCQAYYRNSDYWGQGTTLTVSS
VL: DIVMTQAAPSVPVTPGESVSISCRSSKSLLHSNGNTYLYWFLQRPGQSPQLLIYRMSNLASGVPDRFSGSGSGTAFTLRISRVEAEDVGVYYCMQHLEYPYTFGGGTKLEIK
notes: Variable regions only; Isolated from a Fab library
On to B4, for which the binding result in assay [1] was “binds”.

B5: 3A2 anti-KAAG1 antibody (antibody, V domains shown)
VH: EIQLQQSGPELVKPGASVKMSCKTSGYTFTDYNMHWVKQKPGQGLEWIGYINPYNDVTEYNEKFKGRATLTSDKSSSTAYMDLSSLTSDDSAVYFCAWFGLRQWGQGTLVTVST
VL: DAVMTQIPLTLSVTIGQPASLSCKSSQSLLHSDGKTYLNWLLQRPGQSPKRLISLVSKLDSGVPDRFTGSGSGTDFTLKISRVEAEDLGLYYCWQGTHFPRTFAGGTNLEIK
notes: as for B4
B5: the binding result in assay [1] is listed as “binds”.

B6: 3F6 anti-KAAG1 antibody (antibody, V domains shown)
VH: EVQLQQSGPELVKPGASVKMSCKASGYIFTEYNIHWVKQKPGQGPEWIGNINPYNDVTEYNEKFKGKATLTSDKASSTAYMDLSSLTSEDSAVYYCARWGLRNWGQGTLVTVSA
VL: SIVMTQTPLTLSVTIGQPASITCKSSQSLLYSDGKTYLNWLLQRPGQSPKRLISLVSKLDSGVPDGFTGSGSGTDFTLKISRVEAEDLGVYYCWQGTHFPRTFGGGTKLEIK
notes: as for B4
For the molecule B6, the binding result in assay [1] was “binds”.

B7: 3E8 anti-KAAG1 antibody (antibody, V domains shown)
VH: EVQLQQSVPELVKPGASVKMSCKTSGYTFTEYNMHWVKQKPGQGPEWIGNINPYNNVTEYNEKFKGKATLTSDKSSSTAYLDLSSLTSEDSAVYYCARWGLRNWGQGTLVTVSA
VL: not shown
notes: as for B4
As for B7, the binding result in assay [1] is listed as “binds”.

B8: 3A9 anti-KAAG1 antibody (antibody, V domains shown)
VH: QVQVQQPGAELVRPGASVTLSCKASGYIFTDYEVHWVRQRPVHGLEWIGVIDPETGDTAYNQKFKGKATLTADKSSSTAYMELSSLTAEDSAVYYCIGYADYWGQGTTLTVSS
VL: DIVMTQSPSSLAMSLGQKVTMSCKSSQSLLNSNNQLNYLAWYQQKPGQSPKLLVYFASTRKSGVPDRFIGSGSGTDFTLTITSVQAEDLADYFCQQHFNTPLTFGAGTKLELK
notes: as for B4
Regarding B8, in assay [1], the binding result is reported as “binds”.

B9: humanized 3A4 antibody Lh1Hh2 (antibody, human IgG1, kappa, V domains shown)
VH: QIQLVQSGAEVKKPGASVKVSCKASGYTFTDDYMSWVRQAPGQGLEWMGDINPYNGDTNYNQKFKGRVTITADKSTSTAYMELSSLRSEDTAVYYCARDPGAMDYWGQGTLVTVSS
VL: DIVMTQTPLSLPVTPGEPASISCRSSQSLLHSNGNTYLEWYLQKPGQSPQLLIYTVSNRFSGVPDRFSGSGSGTDFTLKISRVEAEDVGVYYCFQGSHVPLTFGQGTKLEIKR
notes: Human IgG1/kappa
Broadly, the Kd is the concentration at which binding is half-saturated. One may read the koff as the rate constant with which the complex falls apart. What is called kon is the second-order rate constant of association. With B9, in assay [3], the Kd came out at 0.211 nM, the koff was found to be 0.00119 s⁻¹ and the kon worked out at 5.65e+06 M⁻¹ s⁻¹. Also, in assay [4], the Fold diff. turned out to be 13.2.

B10: humanized 3A4 antibody Lh2Hh2 (antibody, human IgG1, kappa, V domains shown)
VH: QIQLVQSGAEVKKPGASVKVSCKASGYTFTDDYMSWVRQAPGQGLEWMGDINPYNGDTNYNQKFKGRVTITADKSTSTAYMELSSLRSEDTAVYYCARDPGAMDYWGQGTLVTVSS
VL: DVVMTQTPLSLPVTPGEPASISCRSSQSLLHSNGNTYLEWYLQKPGQSPKLLIYTVSNRFSGVPDRFSGSGSGTDFTLKISRVEAEDVGVYYCFQGSHVPLTFGQGTKLEIKR
notes: Human IgG1/kappa
In the case of B10, in assay [3], the Kd stood at 0.245 nM, the koff amounted to 0.00181 s⁻¹ and the kon stood at 7.4e+06 M⁻¹ s⁻¹. Moreover, in assay [4], the Fold diff. is 15.3.

B11: humanized 3A4 antibody Lh1Hh1 (antibody, human IgG1, kappa, V domains shown)
VH: QVQLVQSGAEVKKPGASVKVSCKASGYTFTDDYMSWVRQAPGQGLEWMGDINPYNGDTNYNQKFKGRVTITADTSTSTAYMELSSLRSEDTAVYYCARDPGAMDYWGQGTLVTVSS
VL: DIVMTQTPLSLPVTPGEPASISCRSSQSLLHSNGNTYLEWYLQKPGQSPQLLIYTVSNRFSGVPDRFSGSGSGTDFTLKISRVEAEDVGVYYCFQGSHVPLTFGQGTKLEIKR
notes: Human IgG1/kappa; 100% humanized frameworks; also called H1 L1; H1L1
Take B11: in assay [3], the Kd worked out at 0.474 nM, the koff worked out at 0.00328 s⁻¹ and the association rate constant (kon) was determined as 6.93e+06 M⁻¹ s⁻¹. For the same molecule, in assay [5], the Kd stood at 0.47 nM; the “fold difference in binding affinity between the worse variant (H1 L1) and the best variant (H4L2)” value came to 4 fold. Further, in assay [4], the Fold diff. was 29.6.

B12: humanized 3A4 antibody Lh2Hh3 (antibody, human IgG1, kappa, V domains shown)
VH: QIQLVQSGAEVKKPGASVKVSCKASGYTFTDDYMSWVRQAPGQGLEWIGDINPYNGDTNYNQKFKGRATLTVDKSTSTAYMELSSLRSEDTAVYYCARDPGAMDYWGQGTLVTVSS
VL: DVVMTQTPLSLPVTPGEPASISCRSSQSLLHSNGNTYLEWYLQKPGQSPKLLIYTVSNRFSGVPDRFSGSGSGTDFTLKISRVEAEDVGVYYCFQGSHVPLTFGQGTKLEIKR
notes: Human IgG1/kappa
Regarding B12, in assay [3], the Kd amounted to 0.228 nM, the dissociation rate constant (koff) is 0.00102 s⁻¹ and the kon was 4.46e+06 M⁻¹ s⁻¹. In addition, the Fold diff. in assay [4] came out at 14.3.

B13: humanized 3A4 antibody Lh2Hh4 (antibody, human IgG1, kappa, V domains shown)
VH: QIQLVQSGAEVKKPGASVKVSCKASGYTFTDDYMSWVKQAPGQGLEWIGDINPYNGDTNYNQKFKGKATLTVDKSTSTAYMELSSLRSEDTAVYYCARDPGAMDYWGQGTLVTVSS
VL: DVVMTQTPLSLPVTPGEPASISCRSSQSLLHSNGNTYLEWYLQKPGQSPKLLIYTVSNRFSGVPDRFSGSGSGTDFTLKISRVEAEDVGVYYCFQGSHVPLTFGQGTKLEIKR
notes: Human IgG1/kappa; 10 mouse framework residues retained; also called H4L2
As to B13, in assay [3], the Kd was found to be 0.103 nM, the koff came out at 0.00047 s⁻¹ and the kon was found to be 4.57e+06 M⁻¹ s⁻¹. Besides, in assay [5], the Kd amounted to 0.1 nM and the “fold weaker affinity than the murine (LcHc)” value is roughly 6 fold. Further, the Fold diff. in assay [4] was 6.4.

B14: humanized 3A4 antibody Lh2Hh1 (antibody, human IgG1, kappa, V domains shown)
VH: QVQLVQSGAEVKKPGASVKVSCKASGYTFTDDYMSWVRQAPGQGLEWMGDINPYNGDTNYNQKFKGRVTITADTSTSTAYMELSSLRSEDTAVYYCARDPGAMDYWGQGTLVTVSS
VL: DVVMTQTPLSLPVTPGEPASISCRSSQSLLHSNGNTYLEWYLQKPGQSPKLLIYTVSNRFSGVPDRFSGSGSGTDFTLKISRVEAEDVGVYYCFQGSHVPLTFGQGTKLEIKR
notes: Human IgG1/kappa
Regarding B14, in assay [3], the Kd is 0.341 nM, the koff was 0.00237 s⁻¹ and the kon amounted to 6.97e+06 M⁻¹ s⁻¹. Further, in assay [4], the Fold diff. was determined as 21.3.

B15: humanized 3A4 antibody Lh1Hh4 (antibody, human IgG1, kappa, V domains shown)
VH: QIQLVQSGAEVKKPGASVKVSCKASGYTFTDDYMSWVKQAPGQGLEWIGDINPYNGDTNYNQKFKGKATLTVDKSTSTAYMELSSLRSEDTAVYYCARDPGAMDYWGQGTLVTVSS
VL: DIVMTQTPLSLPVTPGEPASISCRSSQSLLHSNGNTYLEWYLQKPGQSPQLLIYTVSNRFSGVPDRFSGSGSGTDFTLKISRVEAEDVGVYYCFQGSHVPLTFGQGTKLEIKR
notes: Human IgG1/kappa
Take B15: in assay [3], the dissociation constant Kd is 0.149 nM, the koff was determined as 0.000764 s⁻¹ and the kon stood at 5.14e+06 M⁻¹ s⁻¹. Also, the Fold diff. in assay [4] was determined as 9.3.

B16: humanized 3A4 antibody Lh1Hh3 (antibody, human IgG1, kappa, V domains shown)
VH: QIQLVQSGAEVKKPGASVKVSCKASGYTFTDDYMSWVRQAPGQGLEWIGDINPYNGDTNYNQKFKGRATLTVDKSTSTAYMELSSLRSEDTAVYYCARDPGAMDYWGQGTLVTVSS
VL: DIVMTQTPLSLPVTPGEPASISCRSSQSLLHSNGNTYLEWYLQKPGQSPQLLIYTVSNRFSGVPDRFSGSGSGTDFTLKISRVEAEDVGVYYCFQGSHVPLTFGQGTKLEIKR
notes: Human IgG1/kappa
Turning to B16, in assay [3], the dissociation constant Kd came out at 0.149 nM, the koff turned out to be 0.00096 s⁻¹ and the kon amounted to 6.46e+06 M⁻¹ s⁻¹. In assay [4], the Fold diff. was determined as 9.3.
